Test results from patent US12281340B2, “Method of producing N-acyl-amino group-containing compound” (AJINOMOTO CO., INC., priority 2018, dated 2025).

B1: OsGH3-8: probable indole-3-acetic acid-amido synthetase GH3.8 from Oryza sativa, expressed in E. coli with N-terminal His-tag (protein, listed as Oryza sativa)
chain: MAVMTDVSTTGTALRTPAAGAVKEGDVEKLRFIDEMTTNVDAVQERVLGEILGRNAGTEYLTKCGLDGATDRAAFRAKVPVVSYDDLQPYIQRIANGDRSPILSTHPVSEFLTSSGTSAGERKLMPTIMDELDRRQLLYSLLMPVMNLYVPGLDKGKGLYFLFVKSETKTPGGLTARPVLTSYYKSDHFKNRPYDPYHNYTSPTAAILCADAFQSMYAQMVCGLCQRNDVLRLGAVFASGLLRAIRFLQLNWEQLADDIESGELTPRVTDPSVREAVAAILLPDPELAKLIRAECSKGDWAGIITRVWPNTKYLDVIVTGAMAQYIPTLEFYSGGLPMACTMYASSECYFGLNLRPMCDPSEVSYTIMPNMGYFEFLPVDETGAASGDATQLVDLARVEVGREYELVITTYAGLNRYRVGDVLRVTGFHNAAPQFRFVRRKNVLLSIESDKTDEAELQRAVERASALLRPHGASVVEYTSQACTKRIPGHYVIYWELLTKGAGATVVDADTLGRCCLEMEEALNTVYRQSRVADGSIGPLEIRVVRPGTFEELMDYAISRGASINQYKVPRCVTFPPIVELLDSRVVSSHFSPALPHWTPARRSE
modifications: N-terminal His-tag
notes: probable indole-3-acetic acid-amido synthetase GH3.8 from Oryza sativa, expressed in E. coli with N-terminal His-tag
B2: AtGH3-5: indole-3-acetic acid-amido synthetase GH3.5 from Arabidopsis thaliana, His-tagged (protein, listed as Arabidopsis thaliana)
chain: MPEAPKKESLEVFDLTLDQKNKQKLQLIEELTSNADQVQRQVLEEILTRNADVEYLRRHDLNGRTDRETFKNIMPVITYEDIEPEINRIANGDKSPILSSKPISEFLTSSGTSGGERKLMPTIEEELDRRSLLYSLLMPVMSQFVPGLENGKGMYFLFIKSESKTPGGLPARPVLTSYYKSSHFKERPYDPYTNYTSPNETILCSDSYQSMYSQMLCGLCQHQEVLRVGAVFASGFIRAIKFLEKHWIELVRDIRTGTLSSLITDPSVREAVAKILKPSPKLADFVEFECKKSSWQGIITRLWPNTKYVDVIVTGTMSQYIPTLDYYSNGLPLVCTMYASSECYFGVNLRPLCKPSEVSYTLIPSMAYFEFLPVHRNNGVTNSINLPKALTEKEQQELVDLVDVKLGQEYELVVTTYAGLCRYRVGDLLRVTGFKNKAPQFSFICRKNVVLSIDSDKTDEVELQNAVKNAVTHLVPFDASLSEYTSYADTSSIPGHYVLFWELCLDGNTPIPPSVFEDCCLAVEESFNTVYRQGRVSDKSIGPLEIKIVEPGTFDKLMDYAISLGASINQYKTPRCVKFAPIIELLNSRVVDSYFSPKCPKWVPGHKQWGSN
modifications: His-tag
notes: indole-3-acetic acid-amido synthetase GH3.5 from Arabidopsis thaliana, His-tagged

Columns and labels:
Assay type in all cases: biochemical
[1] = Synthesis of N-lauroylamino acid / N-lauroylamino acid derivative using purified acylamino acid synthetase, UPLC-MS detection; parameters: key: +: Detected; −: Not detected; conditions: +ATP
[2] = as above; parameters: key: +: Detected; −: Not detected; conditions: +ATP; remark: listed apart in the source
Protocol: 0.2 mL of a reaction solution containing 50 mM Tris-HCl, 5 mM amino acid or D-amino acid derivative, 5 mM sodium laurate, 10 mM ATP, 10 mM MgCl2, 1 mM DTT, 200 μg/mL of the purified enzyme, pH 8.0 was incubated at 25° C. for 24 hours. After completion of the reaction, 0.8 mL of the reaction stop solution (1% (v/v) phosphoric acid, 75% (v/v) methanol) was added, and the mixture was filtrated through the filter followed by being subjected to the UPLC-MS analysis to detect a signal of a molecular weight corresponding to an N-lauroyl-amino acid or an N-lauroyl-amino acid derivative. The condition for the UPLC-MS analysis is as described in Example 2.
As a result of the UPLC-MS analysis, the signal of the molecular weight corresponding to the N-lauroyl-amino acid or the N-lauroyl-amino acid derivative was confirmed in the reaction solution containing the enzyme in combination with the amino acid or the amino acid derivative shown in Table 5 below.

[3] = Synthesis of N-caprinoylamino acid using purified acylamino acid synthetase, UPLC-MS detection; parameters: key: +: Detected; −: Not detected; conditions: +ATP
Procedure, shortened: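 Purified enzyme (50 μg) with 5 mM amino acid, 5 mM sodium caprate, 10 mM ATP, 10 mM MgCl2, 1 mM DTT in Tris-HCl pH 8.0, 24 h at 25° C; product detected by UPLC-MS (ESI-negative) as the N-caprinoyl amino acid mass signal.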

[4] = Quantification of produced N-acylamino acid (UV 210 nm) using purified acylamino acid synthetase; conditions: 5 mM L-Asp, 5 mM sodium fatty acid, 200 μg/mL enzyme, 25° C., 24 hours
Protocol: 0.1 mL of a reaction solution containing 50 mM Tris-HCl, 5 mM amino acid, 5 mM sodium fatty acid, 10 mM ATP, 10 mM MgCl2, 1 mM DTT, 200 μg/mL of the purified enzyme, pH 8.0 was incubated at 25° C. for 24 hours. As amino acids, L-Asp was used in AtGH3-6, OsGH3-8, AtGH3-5, AtGH3-12, and Gly or L-Ala was used in CfHP. After completion of the reaction, 0.4 mL of the reaction stop solution (1% (v/v) phosphoric acid, 75% (v/v) methanol) was added, and the mixture was filtrated through the filter followed by being subjected to the UPLC-MS analysis to quantify the produced N-acylamino acid by detection at UV 210 nm. The condition for the UPLC-MS analysis is as descried in Example 2. As a result of the analysis, 3.9 mM of Nα-capryloyl-L-aspartic acid, 4.5 mM of Nα-caprinoyl-L-aspartic acid and 2.2 mM of Nα-lauroyl-L-aspartic acid were detected when AtGH3-6 was used; 4.3 mM of Nα-capryloyl-L-aspartic acid, 4.6 mM of Nα-caprinoyl-L-aspartic acid and 3.5 mM of Nα-lauroyl-L-aspartic acid were detected when OsGH3-8 was used; 4.1 mM of Nα-capryloyl-L-aspartic acid, 4.6 mM of Nα-caprinoyl-L-aspartic acid and 2.5 mM of Nα-lauroyl-L-aspartic acid were detected when AtGH3-5 was used; 1.6 mM of Nα-capryloyl-L-aspartic acid, 0.6 mM of Nα-caprinoyl-L-aspartic acid and 0.2 mM of Nα-lauroyl-L-aspartic acid were detected when AtGH3-12 was used; 4.5 mM of Nα-capryloylglycine, 4.6 mM of Nα-caprinoylglycine, 0.1 mM of Nα-lauroylglycine, 3.1 mM of Nα-capryloyl-L-alanine, 3.6 mM of Nα-caprinoyl-L-alanine and 0.4 mM of Nα-lauroyl-L-alanine were detected when CfHP was used.

[5] = substrates Sarcosine and sodium laurate
[6] = substrates Taurine and sodium laurate
[7] = substrates Gly and sodium laurate
[8] = substrates L-Ala and sodium laurate
[9] = substrates L-Arg and sodium laurate
[10] = substrates L-Asp and sodium laurate
[11] = substrates L-Glu and sodium laurate
[12] = substrates L-Lys and sodium laurate
[13] = substrates L-Thr and sodium laurate
[14] = substrates β-Ala and sodium laurate
[15] = substrates GABA and sodium caprate
[16] = substrates Gly and sodium caprate
[17] = substrates L-Ala and sodium caprate
[18] = substrates L-Arg and sodium caprate
[19] = substrates L-Asn and sodium caprate
[20] = substrates L-Asp and sodium caprate
[21] = substrates L-Cys and sodium caprate
[22] = substrates L-Gln and sodium caprate
[23] = substrates L-Glu and sodium caprate
[24] = substrates L-His and sodium caprate
[25] = substrates L-Ile and sodium caprate
[26] = substrates L-Leu and sodium caprate
[27] = substrates L-Lys and sodium caprate
[28] = substrates L-Met and sodium caprate
[29] = substrates L-Phe and sodium caprate
[30] = substrates L-Pro and sodium caprate
[31] = substrates L-Ser and sodium caprate
[32] = substrates L-Thr and sodium caprate
[33] = substrates L-Trp and sodium caprate
[34] = substrates L-Tyr and sodium caprate
[35] = substrates L-Val and sodium caprate
[36] = substrates β-Ala and sodium caprate

signal of molecular weight corresponding to N-lauroyl amino acid derivative [1, 5]	signal of molecular weight corresponding to N-lauroyl amino acid derivative [1, 6]	signal of molecular weight corresponding to N-lauroyl amino acid [2, 7]	signal of molecular weight corresponding to N-lauroyl amino acid [2, 8]	signal of molecular weight corresponding to N-lauroyl amino acid [2, 9]	signal of molecular weight corresponding to N-lauroyl amino acid [2, 10]	signal of molecular weight corresponding to N-lauroyl amino acid [2, 11]	signal of molecular weight corresponding to N-lauroyl amino acid [2, 12]	signal of molecular weight corresponding to N-lauroyl amino acid [2, 13]	signal of molecular weight corresponding to N-lauroyl amino acid [2, 14]	signal of molecular weight corresponding to N-caprinoyl amino acid [3, 15]	signal of molecular weight corresponding to N-caprinoyl amino acid [3, 16]	signal of molecular weight corresponding to N-caprinoyl amino acid [3, 17]	signal of molecular weight corresponding to N-caprinoyl amino acid [3, 18]	signal of molecular weight corresponding to N-caprinoyl amino acid [3, 19]	signal of molecular weight corresponding to N-caprinoyl amino acid [3, 20]	signal of molecular weight corresponding to N-caprinoyl amino acid [3, 21]	signal of molecular weight corresponding to N-caprinoyl amino acid [3, 22]	signal of molecular weight corresponding to N-caprinoyl amino acid [3, 23]	signal of molecular weight corresponding to N-caprinoyl amino acid [3, 24]	also measured	Molecule
−	+	+	+	+	+	+	+	+	+	+	+	+	+	+	+	+	+	+	+	signal of molecular weight corresponding to N-caprinoyl amino acid [3, 25]: +; signal of molecular weight corresponding to N-caprinoyl amino acid [3, 26]: +; signal of molecular weight corresponding to N-caprinoyl amino acid [3, 27]: +; signal of molecular weight corresponding to N-caprinoyl amino acid [3, 28]: +; signal of molecular weight corresponding to N-caprinoyl amino acid [3, 29]: +; signal of molecular weight corresponding to N-caprinoyl amino acid [3, 30]: +; signal of molecular weight corresponding to N-caprinoyl amino acid [3, 31]: +; signal of molecular weight corresponding to N-caprinoyl amino acid [3, 32]: +; signal of molecular weight corresponding to N-caprinoyl amino acid [3, 33]: +; signal of molecular weight corresponding to N-caprinoyl amino acid [3, 34]: +; signal of molecular weight corresponding to N-caprinoyl amino acid [3, 35]: +; signal of molecular weight corresponding to N-caprinoyl amino acid [3, 36]: +; Nα-caprinoyl-L-aspartic acid detected [4]: 4.6 mM; Nα-capryloyl-L-aspartic acid detected [4]: 4.3 mM; Nα-lauroyl-L-aspartic acid detected [4]: 3.5 mM	B1
+	+	+	+	+	+	+	+	+	+	+	+	+	+	+	+	+	+	+	+	signal of molecular weight corresponding to N-caprinoyl amino acid [3, 25]: +; signal of molecular weight corresponding to N-caprinoyl amino acid [3, 26]: +; signal of molecular weight corresponding to N-caprinoyl amino acid [3, 27]: +; signal of molecular weight corresponding to N-caprinoyl amino acid [3, 28]: +; signal of molecular weight corresponding to N-caprinoyl amino acid [3, 29]: +; signal of molecular weight corresponding to N-caprinoyl amino acid [3, 30]: +; signal of molecular weight corresponding to N-caprinoyl amino acid [3, 31]: +; signal of molecular weight corresponding to N-caprinoyl amino acid [3, 32]: +; signal of molecular weight corresponding to N-caprinoyl amino acid [3, 33]: +; signal of molecular weight corresponding to N-caprinoyl amino acid [3, 34]: +; signal of molecular weight corresponding to N-caprinoyl amino acid [3, 35]: +; signal of molecular weight corresponding to N-caprinoyl amino acid [3, 36]: +; Nα-caprinoyl-L-aspartic acid detected [4]: 4.6 mM; Nα-capryloyl-L-aspartic acid detected [4]: 4.1 mM; Nα-lauroyl-L-aspartic acid detected [4]: 2.5 mM	B2
